Source: patent US20260184782A1 (TWIST BIOSCIENCE, published 2026)

T1: human TIGIT-Fc (human, UniProt Q495A1 22-141, limits assumed)
T1 construct: not shown: Fc; not described
T1 sequence (looked up): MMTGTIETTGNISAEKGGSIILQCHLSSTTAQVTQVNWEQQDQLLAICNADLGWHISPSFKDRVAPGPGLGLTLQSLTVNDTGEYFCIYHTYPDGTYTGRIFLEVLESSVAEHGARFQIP


Molecular target: T1, human TIGIT-Fc
Experiment: CD155 competition ELISA, single point; further: test concentration or dose not given here
Description: TIGIT/CD155 inhibition of VHH-Fcs were assessed using an ELISA assay (Table 10B). Briefly, human TIGIT-Fc was coated on a plate & then incubated with VHH-Fcs and human CD155-biotin. Bound CD155-biotin was detected using a streptavidin-HRP conjugate visualized with TMB. Strong inhibitors from the single point screen were titrated to determine EC50 (Table 10C).

Binder	OD (450 nm) [OD]
TIGIT-SC70 (Fc fusion, VHH-Fc) VHH: EVQLVESGGGLVQPGGSLRLSCAASGRTFSSFAMGWFRQAPGKEREFVAAISGSGEDTYYADSVKGRFTISADNSKNTAYLQMNSLKPEDTAVYYCARWRLDRRQGFYYAMDVWGQGTLVTVSS	0.64
TIGIT-SC52 (Fc fusion, VHH-Fc) VHH: EVQLVESGGGLVQPGGSLRLSCAASGFLFDSYAMGWFRQAPGKEREFVAAISTGGGWRTYADSVKGRFTISADNSKNTAYLQMNSLKPEDTAVYYCAKRGNDNWYFDLWGQGTLVTVSS	0.351
TIGIT-SC79 (Fc fusion, VHH-Fc) VHH: EVQLVESGGGLVQPGGSLRLSCAASGSILSINTMGWFRQAPGKEREFVAAITSAGGTTYYADSVKGRFTISADNSKNTAYLQMNSLKPEDTAVYYCARWHYDILTGYYWLDSWGQGTLVTVSS	0.8
TIGIT-SC80 (Fc fusion, VHH-Fc) VHH: EVQLVESGGGLVQPGGSLRLSCAASGNIPPINAMGWFRQAPGKEREFVAAINYSGGSTYYADSVKGRFTISADNSKNTAYLQMNSLKPEDTAVYYCARWHYDILTGYYWLDSWGQGTLVTVSS	0.508
TIGIT-SC99 (Fc fusion, VHH-Fc) VHH: EVQLVESGGGLVQPGGSLRLSCAASGSIFSMNTMGWFRQAPGKEREFVGAINWSGGSTIYADSVKGRFTISADNSKNTAYLQMNSLKPEDTAVYYCARWDYDILTNYYWLEYWGQGTLVTVSS	0.635
TIGIT-SC73 (Fc fusion, VHH-Fc) VHH: EVQLVESGGGLVQPGGSLRLSCAASGSSFSLADYAMGWFRQAPGKEREFVAAISYNVGTTYYADSVKGRFTISADNSKNTAYLQMNSLKPEDTAVYYCARWSAKRHSDTMTYYMDVWGQGTLVTVSS	0.405
TIGIT-SC55 (Fc fusion, VHH-Fc) VHH: EVQLVESGGGLVQPGGSLRLSCAASGFPFDDYAMGWFRQAPGKERELVAVIRWTGMNTHYADSVKGRFTISADNSKNTAYLQMNSLKPEDTAVYYCAKGIAVAGAFDYWGQGTLVTVSS	0.364
TIGIT-SC72 (Fc fusion, VHH-Fc) VHH: EVQLVESGGGLVQPGGSLRLSCAASGGLTFSSYAMGWFRQAPGKEREFVAAISWSGGRTYYADSVKGRFTISADNSKNTAYLQMNSLKPEDTAVYYCARWSAKRHSDTMTYYMDVWGQGTLVTVSS	0.394
TIGIT-SC74 (Fc fusion, VHH-Fc) VHH: EVQLVESGGGLVQPGGSLRLSCAASGRTFANNAMGWFRQAPGKEREFVAAINWSGGNTYYADSVKGRFTISADNSKNTAYLQMNSLKPEDTAVYYCAKWSYYGSGLYGMDVWGQGTLVTVSS	0.649
TIGIT-SC75 (Fc fusion, VHH-Fc) VHH: EVQLVESGGGLVQPGGSLRLSCAASGFIGNYHAMGWFRQAPGKEREFVAAIRWSDGSSYYADSVKGRFTISADNSKNTAYLQMNSLKPEDTAVYYCAKWSYYGSGLYGMDVWGQGTLVTVSS	0.652
TIGIT-SC87 (Fc fusion, VHH-Fc) VHH: EVQLVESGGGLVQPGGSLRLSCAASGSIDTINTMGWFRQAPGKEREFVAAITPSSRTTYYVDSVKGRFTISADNSKNTAYLQMNSLKPEDTAVYYCARWGGVTFGGVYPLEYWGQGTLVTVSS	0.438
TIGIT-SC49 (Fc fusion, VHH-Fc) VHH: EVQLVESGGGLVQPGGSLRLSCAASGRTFIGYHMGWFRQAPGKEREFVAAISWTGESTLYADSVKGRFTISADNSKNTAYLQMNSLKPEDTAVYYCARDDYGDYRRYFQHWGQGTLVTVSS	0.382
TIGIT-SC81 (Fc fusion, VHH-Fc) VHH: EVQLVESGGGLVQPGGSLRLSCAASGRSFKDDAMGWFRQAPGKEREFVAAISWSGDSTHYADSVKGRFTISADNSKNTAYLQMNSLKPEDTAVYYCARWVWASGTYWIDYWGQGTLVTVSS	0.553
TIGIT-SC69 (Fc fusion, VHH-Fc) VHH: EVQLVESGGGLVQPGGSLRLSCAASGGTFNGRAMGWFRQAPGKEREFVAAISSIGDTYYADSVKGRFTISADNSKNTAYLQMNSLKPEDTAVYYCARWRLDRRQGFYYAMDVWGQGTLVTVSS	0.666
TIGIT-SC86 (Fc fusion, VHH-Fc) VHH: EVQLVESGGGLVQPGGSLRLSCAASGIIASDSAMGWFRQAPGKEREFVAAIRWSGKETWYADSVKGRFTISADNSKNTAYLQMNSLKPEDTAVYYCARWGGVTFGGVYPLEYWGQGTLVTVSS	0.716
TIGIT-SC103 (Fc fusion, VHH-Fc) VHH: EVQLVESGGGLVQPGGSLRLSCAASGTITSAVFMGWFRQAPGKEREFVAAISWSGGDTNYADSVKGRFTISADNSKNTAYLQMNSLKPEDTAVYYCARWGGITFGGVYPLDYWGQGTLVTVSS	0.666
TIGIT-SC88 (Fc fusion, VHH-Fc) VHH: EVQLVESGGGLVQPGGSLRLSCAASGFTFSSDWMGWFRQAPGKEREFVAAINRSGHSTSYADSVKGRFTISADNSKNTAYLQMNSLKPEDTAVYYCARWGGVTFGGVYPLEYWGQGTLVTVSS	0.484
TIGIT-SC89 (Fc fusion, VHH-Fc) VHH: EVQLVESGGGLVQPGGSLRLSCAASGSMSSINAMGWFRQAPGKEREFVAAINYEGDRTYYADSVKGRFTISADNSKNTAYLQMNSLKPEDTAVYYCARWTRGLVSGTYYYYMDVWGQGTLVTVSS	0.384
TIGIT-SC90 (Fc fusion, VHH-Fc) VHH: EVQLVESGGGLVQPGGSLRLSCAASGDTFSSKAMGWFRQAPGKEREFVAAIRWSVSSTYYADSVKGRFTISADNSKNTAYLQMNSLKPEDTAVYYCARWTRGLVSGTYYYYMDVWGQGTLVTVSS	0.519
TIGIT-SC76 (Fc fusion, VHH-Fc) VHH: EVQLVESGGGLVQPGGSLRLSCAASGFTFSDYAMGWFRQAPGKERELVARIGHDGSTDYADSVKGRFTISADNSKNTAYLQMNSLKPEDTAVYYCLGGLDPWGQGTLVTVSS	0.673
TIGIT-SC71 (Fc fusion, VHH-Fc) VHH: EVQLVESGGGLVQPGGSLRLSCAASGSIRSLNAMGWFRQAPGKEREFVAAINWDSARTYYADSVKGRFTISADNSKNTAYLQMNSLKPEDTAVYYCARWSAKRHSDTMTYYMDVWGQGTLVTVSS	0.868
TIGIT-SC85 (Fc fusion, VHH-Fc) VHH: EVQLVESGGGLVQPGGSLRLSCAASGRTFSPYTMGWFRQAPGKEREWVAGISQSGGSTAYADSVKGRFTISADNSKNTAYLQMNSLKPEDTAVYYCARDLNAMGDAYDIWGQGTLVTVSS	0.768
TIGIT-SC66 (Fc fusion, VHH-Fc) VHH: EVQLVESGGGLVQPGGSLRLSCAASGTTFSSAAMGWFRQAPGKEREWVASVLRGGYTWYADSVKGRFTISADNSKNTAYLQMNSLKPEDTAVYYCVTDPRQWLGHDYWGQGTLVTVSS	0.325
TIGIT-SC56 (Fc fusion, VHH-Fc) VHH: EVQLVESGGGLVQPGGSLRLSCAASGNTFSGGFMGWFRQAPGKEREWVASVLRGGYTWYADSVKGRFTISADNSKNTAYLQMNSLKPEDTAVYYCAHSKGYNWFDPWGQGTLVTVSS	0.335
